The target in assay [1] is HLA-A*02:01. In words: IEDB peptide-MHC binding, purified MHC/competitive/fluorescence; ≥ and ≤ were set here for values at or beyond the usual limits of such assays.
Another assay has as its target HLA-A*24:02. The assay can be described thus: IEDB peptide-MHC binding, purified MHC/competitive/radioactivity; filed as Kd, often an IC50 or EC50 that approximates it; ≥ and ≤ were set here for values at or beyond the usual limits of such assays.
For the next assay, the target named is HLA-A*26:01. The assay is described as above.
The target in the next assay is HLA-A*23:01. The description is as above.
A further assay addresses HLA-A*29:02. The assay is described as above.
Another assay concerns the target HLA-A*30:02. The assay is described as above.
A further assay addresses HLA-A*01:01. The assay is described as above.
The target of another assay is HLA-B*58:01. The assay can be described thus: IEDB peptide-MHC binding, purified MHC/direct/fluorescence; filed as Kd, often an IC50 or EC50 that approximates it; ≥ and ≤ were set here for values at or beyond the usual limits of such assays.
In another assay the target is HLA-B*15:01. The assay is described as above. Particulars: source organism: Salmonella enterica subsp. enterica serovar Typhimurium.
The target of the next assay is HLA-A*68:01. The assay can be described thus: IEDB peptide-MHC binding, purified MHC/competitive/radioactivity; filed as Kd, often an IC50 or EC50 that approximates it; ≥ and ≤ were set here for values at or beyond the usual limits of such assays. The conditions noted are these: source organism: Vaccinia virus WR.
The target of a further assay is HLA-A*03:01. The assay is described as above. Particulars: source organism: Vaccinia virus WR.
The target in a further assay is HLA-A*33:01. Described as above. Particulars: source organism: Vaccinia virus WR.
For a further assay, the target named is HLA-A*31:01. Described as above. The conditions noted are these: source organism: Vaccinia virus WR.
Another assay has as its target HLA-A*11:01. The description is as above. The conditions noted are these: source organism: Vaccinia virus WR.
The target in assay [2] is HLA-A*02:01. The assay can be described thus: IEDB peptide-MHC binding, purified MHC/direct/fluorescence; filed as Kd, often an IC50 or EC50 that approximates it; ≥ and ≤ were set here for values at or beyond the usual limits of such assays.
Setting [3] is: source organism: Zaire ebolavirus.
Setting [4] is: source organism: Lassa virus GA391.
The mark [5] stands for this setting: source organism: Mammarenavirus brazilense.
The mark [6] stands for this setting: source organism: SARS coronavirus Tor2.
The mark [7] stands for this setting: source organism: Mammarenavirus juninense.
Setting [8] is: source organism: Mammarenavirus guanaritoense.
Where [9] appears, read: source organism: Mammarenavirus machupoense.
[10] abbreviates: source organism: Dengue virus 1 Brazil/97-11/1997.
[11] abbreviates: source organism: Sudan ebolavirus.
The mark [12] stands for this setting: source organism: Dengue virus 4 Philippines/H241/1956.
The mark [13] stands for this setting: source organism: Lassa virus Josiah.

Consider WIPYFGPAA, for which the IC50 with HLA-A*02:01 [1] (setting [3]) stood at 0.894 µM.

As to KDFKCFNLI, the Kd with HLA-A*24:02 (setting [4]) is 0.792 µM; with HLA-A*26:01 (setting [4]), no less than 77.9 µM; with HLA-A*23:01 (setting [4]), 0.395 µM; with HLA-A*29:02 (setting [4]), no less than 78.9 µM; with HLA-A*30:02 (setting [4]) it was no less than 33.6 µM; with HLA-A*01:01 (setting [4]), 1.18 µM.

As for AYVNQAHHI, the Kd in the assay with HLA-A*24:02 (setting [5]) is 0.0662 µM; with HLA-A*23:01 (setting [5]), 0.0476 µM; with HLA-A*29:02 (setting [5]), no less than 73.3 µM.

As to ATEETFKLSY, the Kd is no less than 70.3 µM with HLA-A*24:02 (setting [6]); 11.7 µM with HLA-A*26:01 (setting [6]); no less than 52.5 µM with HLA-A*23:01 (setting [6]); 0.224 µM in the assay with HLA-A*29:02 (setting [6]); 0.387 µM with HLA-A*30:02 (setting [6]); 0.0544 µM in the assay with HLA-A*01:01 (setting [6]).

With SGKDTPGGY, the equilibrium dissociation constant (Kd) was no less than 77.5 µM with HLA-A*24:02 (setting [7]); no less than 77.9 µM with HLA-A*26:01 (setting [7]); no less than 77.7 µM with HLA-A*23:01 (setting [7]); no less than 69.7 µM with HLA-A*29:02 (setting [7]); 0.00285 µM with HLA-A*30:02 (setting [7]); 13.6 µM with HLA-A*01:01 (setting [7]).

Regarding RLDDDGNFQL, the 50% inhibitory concentration (IC50) with HLA-A*02:01 [1] (source organism: West Nile virus NY-99) came out at 0.847 µM.

Consider YTGNYQCGHY, for which the Kd is no less than 70.3 µM with HLA-A*24:02 (setting [6]); 0.128 µM with HLA-A*26:01 (setting [6]); no less than 70 µM with HLA-A*23:01 (setting [6]); 0.0225 µM with HLA-A*29:02 (setting [6]); 0.00115 µM in the assay with HLA-A*30:02 (setting [6]); 0.00338 µM in the assay with HLA-A*01:01 (setting [6]).

In the case of YYQLESTQI, the Kd in the assay with HLA-A*24:02 (setting [6]) was 0.0077 µM; with HLA-A*26:01 (setting [6]), no less than 77.9 µM; with HLA-A*23:01 (setting [6]) it was 0.126 µM; with HLA-A*29:02 (setting [6]) it was 0.247 µM; with HLA-A*30:02 (setting [6]) it was no less than 81.1 µM; in the assay with HLA-A*01:01 (setting [6]), no less than 52.8 µM.

With LTKGTLEPEY, the Kd with HLA-A*24:02 (setting [6]) was no less than 70.3 µM; with HLA-A*26:01 (setting [6]), 1.99 µM; with HLA-A*23:01 (setting [6]), no less than 70 µM; in the assay with HLA-A*29:02 (setting [6]), 2.05 µM; in the assay with HLA-A*30:02 (setting [6]) it was 0.536 µM; with HLA-A*01:01 (setting [6]) it was 3.2 µM.

In the case of VLCSSSPTI, the Kd is 1.67 µM with HLA-A*24:02 (setting [8]), 0.457 µM with HLA-A*23:01 (setting [8]) and no less than 30.7 µM with HLA-A*29:02 (setting [8]).

Consider FMNAVGHDW, for which, in the assay with HLA-B*58:01 (setting [7]), the Kd was 0.071 µM.

Turning to CGDPSSFEY, the Kd with HLA-A*24:02 (setting [9]) was no less than 64.1 µM; with HLA-A*26:01 (setting [9]), no less than 77.9 µM; with HLA-A*23:01 (setting [9]), no less than 77.7 µM; with HLA-A*29:02 (setting [9]), 0.834 µM; with HLA-A*30:02 (setting [9]) it was 0.421 µM; with HLA-A*01:01 (setting [9]) it was 0.0394 µM.

For ATLLAVSGVY, the Kd was 2.29 µM with HLA-A*26:01 (setting [10]), 0.00247 µM with HLA-A*30:02 (setting [10]) and 4.92 µM with HLA-A*01:01 (setting [10]).

On to QKAALSEGVY, for which the Kd with HLA-A*30:02 (source organism: Dengue virus 4 Singapore/8976/1995) is 0.139 µM.

In the case of YQRPFGGQS, the Kd with HLA-B*15:01 came out at 3.71 µM.

Sequence QFLFQLNDT gave a half-maximal inhibitory concentration (IC50) with HLA-A*02:01 [1] (setting [11]) of 10.8 µM.

As to ISQHNYRPGY, the equilibrium dissociation constant (Kd) in the assay with HLA-A*30:02 (setting [10]) amounted to 0.0838 µM; with HLA-A*01:01 (setting [10]), 11.1 µM.

As for DMFLTSVINR, the Kd in the assay with HLA-A*68:01 was 0.0102 µM; with HLA-A*29:02 (source organism: Vaccinia virus WR) it was no less than 42.9 µM; in the assay with HLA-A*03:01, 0.965 µM; with HLA-A*33:01, 0.0023 µM; in the assay with HLA-A*31:01, 0.00658 µM; with HLA-A*11:01, 2.42 µM.

As for LFQLIFFLT, the equilibrium dissociation constant (Kd) in the assay with HLA-A*24:02 (setting [5]) is no less than 22.3 µM; with HLA-A*26:01 (setting [5]) it was no less than 77.9 µM; with HLA-A*30:02 (setting [5]), 6.09 µM; in the assay with HLA-A*01:01 (setting [5]), 3.33 µM.

Regarding ILWDYFSLV, the dissociation constant Kd with HLA-A*02:01 [2] (source organism: Mammarenavirus amapariense) was 0.0002 µM.

SGLLIVKTV: in the assay with HLA-A*02:01 [1] (setting [3]), the IC50 was found to be 2.29 µM.

In turn, GLAGLQTDV registered an equilibrium dissociation constant (Kd) in the assay with HLA-A*02:01 [2] (source organism: Giardia intestinalis) of 0.175 µM.

In the assay with HLA-A*02:01 [1] (setting [11]), FRSGVPPKV showed a half-maximal inhibitory concentration (IC50) of no less than 169 µM.

On to NLTIAWPRM, for which, in the assay with HLA-A*02:01 [1] (source organism: Human alphaherpesvirus 1 strain 17), the IC50 is no less than 50 µM.

With LFWAVKPKI, the Kd worked out at 2.77 µM with HLA-A*24:02 (setting [5]), 2.12 µM with HLA-A*23:01 (setting [5]) and 9.35 µM with HLA-A*29:02 (setting [5]).

Turning to ISSTPFAEY, the Kd with HLA-A*30:02 (setting [12]) was determined as 0.319 µM; with HLA-A*01:01 (setting [12]) it was 1.89 µM.

As for IILFQKAFS, the IC50 with HLA-A*02:01 [1] (setting [11]) turned out to be 67.7 µM.

Take GYCLTRWMLI: the Kd in the assay with HLA-A*24:02 (setting [13]) came out at 1.1 µM; in the assay with HLA-A*23:01 (setting [13]), 0.242 µM; in the assay with HLA-A*29:02 (setting [13]) it was 12.2 µM.

GVPLLAMGCY: the equilibrium dissociation constant (Kd) with HLA-A*30:02 (setting [12]) came to 0.105 µM.

As to PRCRYVHKV, in the assay with HLA-A*02:01 [1] (setting [3]), the IC50 was no less than 3070 µM.

In the assay with HLA-B*58:01 (source organism: Mycobacterium tuberculosis), RSTYRLDGW gave a Kd of 0.0453 µM.

A word on the IC50: it is the point on the concentration scale where inhibition reaches its midpoint. A higher IC50 goes with weaker potency in that assay. A word on the Kd: it is a measure of binding affinity in units of concentration.

The record behind these values is the Immune Epitope Database (IEDB).
